Fewer inactive variants are shown than the library holds.
B1: TPR 5TU (parent)
chain: GGAUCUUCUCGAUCUAACAAAAAAGACAAAUCUGCCACAAAGCUUGAGAGCAUCUUCGGAUGCAGAGGCGGCAGCCUUCGGUGGCGCGAUAGCGCCAACGUUCUCAACUAUGACACGCAAAACGCGUGCUCCGUUGAAUGGAGUUUAUCAUG

Variants of: B1
Assay: polymerase ribozyme fitness, log enrichment relative to wild type (log ratio); higher = more active; in vitro selection for triplet polymerase activity
Outline: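 PCR was used to build mutant libraries for each subunit of a heterodimeric triplet polymerase ribozyme, which were then transcribed. A single in vitro selection round, in triplicate, used a frozen incubation at −7 °C and recovered extended constructs by gel excision, streptavidin beads and RT-PCR. Fitness is the logarithm of genotype enrichment relative to wild-type enrichment, averaged over replicates with inverse-variance weights. The logarithm is base 2, and after Illumina sequencing only genotypes with ≥10 input reads and ≥1 read per output were kept.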

| Variant | polymerase ribozyme fitness (log ratio) |
| --- | --- |
| C54G C85A G92C G133U U146G | ≤ -4.2 |
| C54U C93U C105G G126C | -2.01 |
| C54U G59C G83A G117U | -0.252 |
| C54G G84A | -1.74 |
| C54U U61A A106G G152C | ≤ -4.2 |
| U55A C85G C114A A142C U151A | -4.19 |
| C54G C63G C93U A115U C149G | ≤ -4.2 |
| C54U C85G A91U | ≤ -4.2 |
| C54U A89C C131U | 0.237 |
| C54A U56A | -1.31 |
| U55A C87A C108G | ≤ -4.2 |
| U55A C85U C103U | -0.7 |
| U55A C57U G81A G84A | -0.555 |
| C54U U55A G86A C116G | -2.2 |
| C54A U56G C95A A120G | -1.33 |
| C54A U82C U146C | -0.537 |
| C54A U144A | -1.74 |
| C54U G83A | -0.655 |
| C54U G83U | -0.319 |
| C54U U56A G58A C85U C95A | -1.2 |
| C54G C95G | -2.56 |
| C54G C76A C85G | -2.78 |
| U55A A98U | -0.0691 |
| C54A G59A C87U | -1.95 |

| Variant | polymerase ribozyme fitness (log ratio) |
| --- | --- |
| C54G U55A G58A C99G C132A | ≤ -4.2 |
| C54U U82G | 0.0533 |
| U55A C85A G141C | -1.86 |
| C54A G92A | ≤ -4.2 |
| C54U U55A | -0.284 |
| C54U C95U A98G A142U | -1.61 |
| C54U C93U A98G | -1.41 |
| C54U G84A G92U U144A | -1.38 |
| C54U A64G C116G U139G | ≤ -4.2 |
| C54U C103A | -2.22 |
| C54U C85G C93U A97C A137U U139G | ≤ -4.2 |
| U55A C87G U101G G143A | ≤ -4.2 |
| C54G G68U C87A U104G | ≤ -4.2 |
| C54A U55A | -1.91 |
| C54G G92A C132A | ≤ -4.2 |
| C54A U55G A107U U109C G117A C118U A121C | ≤ -4.2 |
| C54A G70A C95U A120G | -3.62 |
| C54U C93A A110G A137G G140C | -4.1 |
| U55A C63U A142U | -0.552 |
| C54U C95U G133C | -2.19 |
| C54U U56A A60U G70U A115G A150C | ≤ -4.2 |
| C54G C75U G94A | -1.51 |
| C54G A97C G124A | -0.735 |
| C54G G59A C76A C85G A121C C123A U127G G140C G143U A150C | ≤ -4.2 |

| Variant | polymerase ribozyme fitness (log ratio) |
| --- | --- |
| C54U A60C C99U | -3.17 |
| C54U U77G A121C | ≤ -4.2 |
| C54G C99G G136U | -3.14 |
| U55A C79U G83A C93A A97C A138U | ≤ -4.2 |
| C54A U101G C108U A115U G117U C129U G133A | ≤ -4.2 |
| C54G U146G | -2.99 |
| C54A G83U | -1.19 |
| U55A C95A G143A U144C | -3.04 |
| C54G C75G C87A | ≤ -4.2 |
| C54A G70C G88A C93G U134A U146A | ≤ -4.2 |
| C54U U144A | -0.258 |
| C54G C108U | -4.19 |
| C54G C75G G86U G92C G124U C125A A137C U151C | ≤ -4.2 |
| C54A G94U C105U | -2.47 |
| C54G A60G C95G | -2.44 |
| C54U G68U U82A G94A A97C G117A A138C G141A | ≤ -4.2 |
| U55A A89C A119C | -0.892 |
| C54U C96A A97G | -1.12 |
| C54G A89U A147C | -2.1 |
| U55A C76A A115G A121C | -1.09 |
| C54G C75A | ≤ -4.2 |
| C54G C75U | -1.86 |
| U55A C93A | -2.96 |
| U55A C63U C85U C105U | 0.719 |

| Variant | polymerase ribozyme fitness (log ratio) |
| --- | --- |
| U55A A64G G84A C93G A137G A142U | ≤ -4.2 |
| U55A A121C | -0.369 |
| C54U A60C C75A A91U C96U A97G A107C G136A A137U | ≤ -4.2 |
| U55A A60G C99G G141C | -2.6 |
| C54U A115U | -2.4 |
| U55A C69G U146A | -3.62 |
| C54G C76U U77C C87A G126U | ≤ -4.2 |
| C54U C79U A115G A120G A122U G141U | ≤ -4.2 |
| C54G A89U C95U A97C | -2.48 |
| C54U G59C A60U A66C | ≤ -4.2 |
| C54G A89C C123G C131A | ≤ -4.2 |
| C54U G92C A121U | -0.244 |
| C54U U56A G133C | -1.7 |
| C54A G94C G141A | -3.13 |
| C54U C87U C105A | -2.09 |
| C54U G71C C116U G136A U146C | -3.51 |
| C54G A97G | -0.818 |
| U55A C76A G84U C116U A137U | ≤ -4.2 |
| C54U A73G G83U C95G G100U U135A | ≤ -4.2 |
| C54G C93A | -4.19 |
| U55A A66U C79U G80C C87G C116U U145G | ≤ -4.2 |
| C54U C75G | -3.81 |
| C54A G86U A110C | ≤ -4.2 |
| C54U G84U | -2.22 |

| Variant | polymerase ribozyme fitness (log ratio) |
| --- | --- |
| U55A A137G G141A | -1.96 |
| U55A A91U G136A | ≤ -4.2 |
| C54U C95A | -1.44 |
| C54U U135A G136C | -3.76 |
| C54G G133C | -2.55 |
| U55A C76A | -0.81 |
| C54G A73G C79A U82G C87U A122U G141C | ≤ -4.2 |
| U55A C79U | -2.74 |
| C54U C69G C85G | -3.9 |
| C54U C75U G84C A98U A113G C129U | ≤ -4.2 |
| C54A G70A | -3.79 |
| U55A C79U C85U | -3.3 |
| C54A U55A U77G A121C A137U | ≤ -4.2 |
| U55A A91G | -2.86 |
| C54G C95A C118G | -2.03 |
| U55A C93G G143A | -3.93 |
| C54U A66U C85U | ≤ -4.2 |
| C54U G58A A64C G71A | ≤ -4.2 |
| C54A U56G U78G U82G C114A U144C | ≤ -4.2 |
| C54U U90C G94A C131U | ≤ -4.2 |
| C54U G92U A147U | 0.0812 |
| U55A A64G U135A | ≤ -4.2 |
| C54U A66G C72U G81C C96A A107G G133U U145A | ≤ -4.2 |
| C54U C72U A91U C95G A98C C103A A119G A121G | ≤ -4.2 |

| Variant | polymerase ribozyme fitness (log ratio) |
| --- | --- |
| C54U C96G | -0.994 |
| C54U C96U | -0.41 |
| C54U G83C C85G A138G | ≤ -4.2 |
| C54U A91C G92U C105U G133U | ≤ -4.2 |
| C54G G83A C96U A110G C132U A142C | ≤ -4.2 |
| U55A C87U C93U | -4.13 |
| C54U G86C | -3.47 |
| C54U U148C | -1.84 |
| U55A A73U C99U U145C | ≤ -4.2 |
| U55A C57G A89U G136C | -3.69 |
| C54G G83U G141U | -1.56 |
| U55A C72A U139C | ≤ -4.2 |
| C54U G59A G70C | -2.48 |
| U55A A115U U127G U135A U145A | -1.32 |
| U55A C85A C125A | -1.75 |
| U55A A107C | ≤ -4.2 |
| C54G C95G A107U C108G G143A U145C | ≤ -4.2 |
| C54G G94A | -1.68 |
| C54A G59U A60C G83A C116A | -2.11 |
| C54U U151C | -3.65 |
| C54G G59C G83U C87U G94A U102C U148G | ≤ -4.2 |
| U55A C85A G100A A121G C131A | ≤ -4.2 |
| C54U C57U G100C | ≤ -4.2 |
| C54G A147C | -1.47 |

| Variant | polymerase ribozyme fitness (log ratio) |
| --- | --- |
| C54U C63U G94U G143A | -2.26 |
| C54G U55A G58U | 0.0801 |
| C54U U78G C96G A113U | ≤ -4.2 |
| U55A C76G G100C U109A A120G | ≤ -4.2 |
| C54A U56A C85G U101C U134A U148C | ≤ -4.2 |
| U55A A60U U101G | -0.433 |
| C54U G81A G86U C105A A147U | -4.16 |
| C54U A122U | 0.0261 |
| U55A A89G | -1.16 |
| U55A A89C | -0.409 |
| C54U U104G | -1.21 |
| C54A U102A | -2.71 |
| C54A U61A C93G C149G | ≤ -4.2 |
| C54G G86U | -3.24 |
| C54U C76U C123A U139G U146C A150C | ≤ -4.2 |
| C54G G140U | -3.63 |
| C54A U56A C93A A98U A138C U151G | ≤ -4.2 |
| C54U G92A | -3 |
| C54U G92U | -0.757 |
| U55A A60C G62A G81A C85U G133C | ≤ -4.2 |
| C54G C76A C93G C123U | ≤ -4.2 |
| U55A C85U | -0.644 |
| C54U G71A A97U C105U A106C | ≤ -4.2 |
